The values below come from the RNAGym collection of RNA variant scans (doi:10.7554/elife.80360).

B1: Hairpin Ribozyme (parent)
chain: GUCCUCUUUCACGUGCGCGUGAAAGAGAGAAGUGAACCAGAGAAACACACGUUGUGGUAUAUUACCUGGUA

The variants in this data set derive from B1. In words: self-cleavage, relative activity (ratio to wild type); higher = more cleavage; co-transcriptional.
As for GUCCUCUUUCAGGUGCGCGUGAAAGAGAGAAGUGAACCAGAGAAACACACGUUGUGGUAUAUUACCUGCUA, the self-cleavage is 0.355. The same measure for GUCCUCUUUCACGUGCGCGUGAACGAGAGAAGUGGACCAGAGAAACACACGUUGUGGUAUAUUACCUGGUA: 0.864; for GUCCUCUUUCACGUGCGCGUGGAAGAGAGAAGUGAACCAGAGAAACACACGUUGUGGUAUAUUACAUGGUA: 0.172; for GUCCUCUUUCACGUACGCGUGAAAGAGAGAAGUGAGCCAGAGAAACACACGUUGUGGUAUAUUACCUGGUA: 1.08. On to GUCCUCUUUCACGUGCGCGUGAAAGAGAGGAGUGGACCAGAGAAACACACGUUGUGGUAUAUUACCUGGUA, for which the self-cleavage is 0.125. Next, GUCCUCUUUCACGUGCGCGUGAAAGAGAGAAGUGAAUCAGAGCAACACACGUUGUGGUAUAUUACCUGGUA: 0.126. For GUCCUCUUUCUCGUGCGCGUGAAAGAGAGAAGUGAACCAGGGAAACACACGUUGUGGUAUAUUACCUGGUA, the self-cleavage came out at 0.495. Next, GUCCUCUUUCACGUGCGCGUGAAAGAGAGAAGUGAACCCGAGAACCACACGUUGUGGUAUAUUACCUGGUA: 0.174; GUCCUCUUUCACUUGCGCGUGAAAGAGAGAAGUGAACCAGAGAAACACACGUCGUGGUAUAUUACCUGGUA: 0.477. Take GUCCUCUUUCACGUGCGCGUGAAAGAGAGAAGUGAACCAGAGAAACUCACGUUGGGGUAUAUUACCUGGUA: the self-cleavage stood at 0.128. Regarding GUCCGCUUUCACGUGCGCGUGAAAGAGAGAAGUGAACCAGAGAAACACACGUUGUGGUAUAUUACCUGUUA, the self-cleavage was 0.247. On to GUCCUCUUUCACGUGCGCGUGAAAGAGAGAAGUGAAGCAGAGAAACACACGUUGUGAUAUAUUACCUGGUA, for which the self-cleavage came out at 0.13. In the case of CUCCUCUUUCACGUGCGCGUGAAAGAGAGAAGUGAACCAGAGAAACACACGUUGUGGUAUAUUACCUGGUC, the self-cleavage was found to be 0.328. Next, GUCCUCUUUCACGUGCGCGUGCAUGAGAGAAGUGAACCAGAGAAACACACGUUGUGGUAUAUUACCUGGUA: 0.485; GUCCUCUUUCGCGUGCGCGUGUAAGAGAGAAGUGAACCAGAGAAACACACGUUGUGGUAUAUUACCUGGUA: 1.01. For GUCCUCUUUCGCGUGCGCGUGCAAGAGAGAAGUGAACCAGAGAAACACACGUUGUGGUAUAUUACCUGGUA, the self-cleavage worked out at 0.779.

GUCCUCUGUGACGUGCGCGUGAAAGAGAGAAGUGAACCAGAGAAACACACGUUGUGGUAUAUUACCUGGUA: the self-cleavage was 0.676.

Take GUCCUCUUUCACGUGCGCGUGAAAGAGAGAACUGAACCAGAGAAACACACCUUGUGGUAUAUUACCUGGUA: the self-cleavage turned out to be 0.0912. Consider GUUCUCUUUCACUUGCGCGUGAAAGAGAGAAGUGAACCAGAGAAACACACGUUGUGGUAUAUUACCUGGUA, for which the self-cleavage turned out to be 0.429. As to GUCCUCUCUCACGUGCGCGUGAAAGAGAGAAGUGAACUAGAGAAACACACGUUGUGGUAUAUUACCUGGUA, the self-cleavage amounted to 0.245. Next, GUCCUCUUUCACGUGCGCGUGAAAGAGAGUAGUGAACCAGAGAAACACACGUUGUGGUAUAUUACCUGGGA: 0.117.

On to GGCCUCUUUCCCGUGCGCGUGAAAGAGAGAAGUGAACCAGAGAAACACACGUUGUGGUAUAUUACCUGGUA, for which the self-cleavage was found to be 0.267. Consider GUCCUCUUUCACGUGCGCUUGAAAGAGAGAAGUGAACCAGAGAAACACACGUUGUGCUAUAUUACCUGGUA, for which the self-cleavage worked out at 0.105.

Consider GUUCUCUUUCACGUGCGCGUGAAAGAGAGAAGUGAACCAGGGAAACACACGUUGUGGUAUAUUACCUGGUA, for which the self-cleavage stood at 0.643. For GUUCUCUUUCACGUGCGCGUGAAAGAGAGAAGUGAACCAGCGAAACACACGUUGUGGUAUAUUACCUGGUA, the self-cleavage worked out at 0.983. GUGCUCUUUCACGUGCGCGUGAAAGAGAGAAGUGAACCAGAGAGACACACGUUGUGGUAUAUUACCUGGUA: the self-cleavage turned out to be 0.15. In the case of GUCCUCUUUCACGUGCGCGUGAAAGAGAGAAGUGAACCAGAGAAACACACGUGGUUGUAUAUUACCUGGUA, the self-cleavage is 0.223. Next, GUCCUCUUUCACGUGCGCGUGAAAGAGAGAAGUGAACCAGAGAAACACACCUUGUGGUAUAUUACAUGGUA: 0.184; GUCCUCUUACACGUGCGCGUGAAAGAGAGAAGUGAACCAGAGAAACACACGUUGUGGUAUAUUACCUGGAA: 0.581; GUCCUCUUUCACGUGGGCGUGAAAGAGAGAAGUGAACCAGAGAAACACACGUUGUGGUAUAUUACCUGGAA: 0.728. The same measure for GUCCUCUUUCACGUGCGCGUGAAAGAGAGAAGUGAACCAGAGAAACACAAGUUGUGGUUUAUUACCUGGUA: 0.231; for GUCCGCUUUCACGUGCGCGUGAAAGAGAGAAGUGAACCAGAGAAACACGCGUUGUGGUAUAUUACCUGGUA: 0.109; for GUCCUCUUUCACGUGCGCGUGAAAUAGAGAAGUGAACCAGAGAAACACACGUUGUGGUAUAUUACCCGGUA: 0.178. Consider GUCCUCUUUGACGUGCGCGUGAGAGAGAGAAGUGAACCAGAGAAACACACGUUGUGGUAUAUUACCUGGUA, for which the self-cleavage was found to be 0.419. For GUCCCCUUUCACGUGCGCGUGAAAGAGAGAACUGAACCAGAGAAACACACGUUGUGGUAUAUUACCUGGUA, the self-cleavage was determined as 0.0586.

Turning to GUCCUCUUUCACGUGCGCGUGAAAGAGAGAAGUGAACCCGAGAGACACACGUUGUGGUAUAUUACCUGGUA, the self-cleavage came to 0.0893. The same measure for GUCCUCUUUCACGUGCGCGUGAAAGAGAGAAAUGACCCAGAGAAACACACGUUGUGGUAUAUUACCUGGUA: 0.145; for GUCCUCUUUCACGUGCUCGUGAAAGAGAGAAGUGAACCAGAGAAACACACGUUGUGGUUUAUUACCUGGUA: 0.274.
